Test [1] deals with fluorescently labelled nucleosome core particle (NCP), non-ubiquitylated (human) (UniProt P68431). In words: fluorescence polarisation. In general terms: Fluorescence polarisation rises when a labelled molecule tumbles more slowly, as on binding a larger partner.
Test [2] deals with fluorescently labelled nucleosome core particle ubiquitylated at H2A K13 and K15 (human) (UniProt P68431). Kind of test: fluorescence polarisation.

Sequence of GST-tagged BARD1 (ARD–BRCT), residues 415–777, wild type (Q99728 415-777): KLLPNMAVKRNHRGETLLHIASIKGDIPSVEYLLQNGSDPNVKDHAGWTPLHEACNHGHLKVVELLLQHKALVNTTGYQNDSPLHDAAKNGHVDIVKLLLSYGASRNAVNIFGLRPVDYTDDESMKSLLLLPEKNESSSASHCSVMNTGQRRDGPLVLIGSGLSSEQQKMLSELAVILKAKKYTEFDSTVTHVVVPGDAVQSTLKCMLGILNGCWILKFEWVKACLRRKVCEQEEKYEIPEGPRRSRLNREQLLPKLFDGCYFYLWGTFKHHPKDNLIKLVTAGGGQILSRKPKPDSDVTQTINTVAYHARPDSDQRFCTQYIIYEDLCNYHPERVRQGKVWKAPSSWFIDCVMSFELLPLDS

Broadly, the Kd is the equilibrium constant for the complex coming apart. Turning to “BRCA1^R–BARD1^Long, BRCA1 (residues 1–100)–BARD1 (residues 26–777) (from UniProt P38398 1-100; Q99728 26-777) (enzyme)”, the Kd was found to be 60 nM in test [1] and 20 nM in test [2].
With “BRCA1^R–BARD1^R, fusion of BRCA1 (residues 1–100) and BARD1 (residues 26–122) (from UniProt P38398 1-100; Q99728 26-122) (enzyme)”, in test [1], the Kd stood at 8000 nM.
Turning to “GST-tagged BARD1 (ARD–BRCT), residues 415–777, wild type (from UniProt Q99728 415-777) (domain or fragment)”, in test [2], the Kd came to 200 nM.

The record behind these values is publication PMC8680157.
